Reference: the supplement of paper PMC9112550, “Optimization of the antimicrobial peptide Bac7 by deep mutational scanning” (BMC Biology, 2022)

Test system: Escherichia coli TOP10
Assay: shrunken log2 fold change of peptide-encoding DNA abundance (4.5 h post-induction vs induction); higher = less antimicrobial activity (less host growth inhibition)
Settings: time post-induction: 4.5 h; library: site-saturation at positions 5, 18, 19, 20
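Also: peptides expressed intracellularly from a pBAD plasmid library in pooled LB shake-flask culture, induced with 0.3% L-arabinose, DNA abundance read by NGS, three biological replicates, DESeq2 with apeglm shrinkage.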

| Sequence | shrunken log2 fold change |
| --- | --- |
| RRIRVRPPRLPRPRPRPPIVPRP | 0.0432 |
| RRIRYRPPRLPRPRPRPAVPPRP | -0.625 |
| RRIRHRPPRLPRPRPRPYRNPRP | -0.191 |
| RRIRKRPPRLPRPRPRPECCPRP | 0.327 |
| RRIRVRPPRLPRPRPRPRKDPRP | 0.0324 |
| RRIRTRPPRLPRPRPRPFYNPRP | -0.755 |
| RRIRHRPPRLPRPRPRPSHKPRP | -0.718 |
| RRIRDRPPRLPRPRPRPQLDPRP | 0.207 |
| RRIRERPPRLPRPRPRPTELPRP | -0.577 |
| RRIRKRPPRLPRPRPRPRMFPRP | 0.112 |
| RRIRFRPPRLPRPRPRPLRMPRP | 0.0542 |
| RRIRPRPPRLPRPRPRPQPTPRP | -0.0242 |
| RRIRLRPPRLPRPRPRPLIFPRP | -0.656 |
| RRIRQRPPRLPRPRPRPVRKPRP | -0.0285 |
| RRIRGRPPRLPRPRPRPFRCPRP | 0.0939 |
| RRIRWRPPRLPRPRPRPAVFPRP | 0.354 |
| RRIRNRPPRLPRPRPRPIYRPRP | -0.356 |
| RRIRRRPPRLPRPRPRPYETPRP | 0.119 |
| RRIRWRPPRLPRPRPRPGKGPRP | -0.0357 |
| RRIRARPPRLPRPRPRPCEEPRP | 0.622 |
| RRIRNRPPRLPRPRPRPAQTPRP | -0.0137 |
| RRIRRRPPRLPRPRPRPRTEPRP | 0.432 |
| RRIRYRPPRLPRPRPRPAFHPRP | -0.518 |
| RRIRCRPPRLPRPRPRPFKLPRP | -0.62 |
| RRIRWRPPRLPRPRPRPEPMPRP | 0.38 |

| Sequence | shrunken log2 fold change |
| --- | --- |
| RRIRCRPPRLPRPRPRPQYFPRP | -0.252 |
| RRIRSRPPRLPRPRPRPEFIPRP | 0.162 |
| RRIRWRPPRLPRPRPRPREDPRP | 0.532 |
| RRIRCRPPRLPRPRPRPTRLPRP | 0.558 |
| RRIRVRPPRLPRPRPRPAIPPRP | -0.356 |
| RRIRCRPPRLPRPRPRPAEVPRP | -0.106 |
| RRIRDRPPRLPRPRPRPLPVPRP | -0.421 |
| RRIRIRPPRLPRPRPRPSSQPRP | -0.674 |
| RRIRPRPPRLPRPRPRPMNRPRP | -0.118 |
| RRIRQRPPRLPRPRPRPPFQPRP | 0.0422 |
| RRIRQRPPRLPRPRPRPVHDPRP | 0.0147 |
| RRIRLRPPRLPRPRPRPNPKPRP | -0.0548 |
| RRIRRRPPRLPRPRPRPYFIPRP | -0.432 |
| RRIRPRPPRLPRPRPRPQIQPRP | -0.286 |
| RRIRARPPRLPRPRPRPDWHPRP | 0.136 |
| RRIRIRPPRLPRPRPRPTVKPRP | -0.468 |
| RRIRQRPPRLPRPRPRPEKYPRP | -0.304 |
| RRIRHRPPRLPRPRPRPAYNPRP | -1.04 |
| RRIRDRPPRLPRPRPRPWRHPRP | 0.0719 |
| RRIRCRPPRLPRPRPRPICRPRP | -0.0824 |
| RRIRKRPPRLPRPRPRPMNKPRP | 0.0136 |
| RRIRKRPPRLPRPRPRPYEPPRP | -0.243 |
| RRIRPRPPRLPRPRPRPPALPRP | 0.388 |
| RRIRPRPPRLPRPRPRPEDFPRP | -0.0193 |
| RRIRNRPPRLPRPRPRPCPEPRP | 0.113 |

| Sequence | shrunken log2 fold change |
| --- | --- |
| RRIRLRPPRLPRPRPRPQHKPRP | -0.0846 |
| RRIRSRPPRLPRPRPRPQWLPRP | -0.32 |
| RRIRRRPPRLPRPRPRPVEDPRP | 0.355 |
| RRIRQRPPRLPRPRPRPAGHPRP | 0.000618 |
| RRIRCRPPRLPRPRPRPKFAPRP | 0.0822 |
| RRIRMRPPRLPRPRPRPFGQPRP | 0.0853 |
| RRIRIRPPRLPRPRPRPFFTPRP | -0.312 |
| RRIRMRPPRLPRPRPRPLRQPRP | -0.214 |
| RRIRVRPPRLPRPRPRPYVKPRP | -0.354 |
| RRIRHRPPRLPRPRPRPHTPPRP | -0.147 |
| RRIRWRPPRLPRPRPRPCYMPRP | -0.282 |
| RRIRFRPPRLPRPRPRPGPSPRP | 0.764 |
| RRIRFRPPRLPRPRPRPNPVPRP | -0.117 |
| RRIRSRPPRLPRPRPRPAHTPRP | -0.379 |
| RRIRERPPRLPRPRPRPPHQPRP | -0.0506 |
| RRIRSRPPRLPRPRPRPAGLPRP | -0.0231 |
| RRIRMRPPRLPRPRPRPSIVPRP | -0.106 |
| RRIRLRPPRLPRPRPRPFNAPRP | -0.154 |
| RRIRHRPPRLPRPRPRPWDGPRP | -0.0969 |
| RRIRFRPPRLPRPRPRPSTPPRP | -0.463 |
| RRIRSRPPRLPRPRPRPCDWPRP | 0.0154 |
| RRIRDRPPRLPRPRPRPKWYPRP | -0.0377 |
| RRIRCRPPRLPRPRPRPPDKPRP | 0.0264 |
| RRIRKRPPRLPRPRPRPWCSPRP | -0.155 |
| RRIRIRPPRLPRPRPRPMNIPRP | -0.0512 |

| Sequence | shrunken log2 fold change |
| --- | --- |
| RRIRCRPPRLPRPRPRPMAMPRP | 0.106 |
| RRIRERPPRLPRPRPRPGKAPRP | -0.0498 |
| RRIRLRPPRLPRPRPRPNEGPRP | 0.00337 |
| RRIRCRPPRLPRPRPRPWCIPRP | -0.308 |
| RRIRQRPPRLPRPRPRPPEHPRP | 0.0412 |
| RRIRNRPPRLPRPRPRPWSVPRP | -0.328 |
| RRIRVRPPRLPRPRPRPLSWPRP | 0.0819 |
| RRIRGRPPRLPRPRPRPQMSPRP | 0.395 |
| RRIRDRPPRLPRPRPRPGLFPRP | 0.949 |
| RRIRFRPPRLPRPRPRPYHRPRP | 0.045 |
| RRIRFRPPRLPRPRPRPSYVPRP | -0.501 |
| RRIRLRPPRLPRPRPRPWHTPRP | -0.314 |
| RRIRCRPPRLPRPRPRPNDVPRP | -0.215 |
| RRIRHRPPRLPRPRPRPIFWPRP | -0.0136 |
| RRIRKRPPRLPRPRPRPSVVPRP | 0.45 |
| RRIRCRPPRLPRPRPRPFWMPRP | -0.176 |
| RRIRDRPPRLPRPRPRPWMYPRP | -0.267 |
| RRIRFRPPRLPRPRPRPSYPPRP | -0.161 |
| RRIRMRPPRLPRPRPRPGPWPRP | 0.89 |
| RRIRHRPPRLPRPRPRPPSEPRP | -0.0921 |
| RRIRQRPPRLPRPRPRPHAEPRP | -0.0176 |
| RRIRRRPPRLPRPRPRPSMCPRP | 0.008 |
| RRIRTRPPRLPRPRPRPMDYPRP | -0.00965 |
| RRIRMRPPRLPRPRPRPSITPRP | -0.0273 |
| RRIRRRPPRLPRPRPRPVRKPRP | -0.0548 |

| Sequence | shrunken log2 fold change |
| --- | --- |
| RRIRARPPRLPRPRPRPVKLPRP | -0.59 |
| RRIRIRPPRLPRPRPRPVWRPRP | 0.391 |
| RRIRHRPPRLPRPRPRPPYCPRP | -0.0539 |
| RRIRYRPPRLPRPRPRPHVMPRP | -0.644 |
| RRIRSRPPRLPRPRPRPMNPPRP | -0.0648 |
| RRIRPRPPRLPRPRPRPKGAPRP | 0.21 |
| RRIRPRPPRLPRPRPRPMAIPRP | -0.0296 |
| RRIRWRPPRLPRPRPRPRVCPRP | 0.347 |
| RRIRWRPPRLPRPRPRPIHIPRP | -0.694 |
| RRIRVRPPRLPRPRPRPQFIPRP | -0.128 |
| RRIRKRPPRLPRPRPRPINGPRP | 0.00103 |
| RRIRRRPPRLPRPRPRPNQGPRP | 0.134 |
| RRIRSRPPRLPRPRPRPLCVPRP | -0.143 |
| RRIRLRPPRLPRPRPRPIKPPRP | 0.0261 |
| RRIRARPPRLPRPRPRPGHMPRP | -0.0412 |
| RRIRTRPPRLPRPRPRPCTTPRP | -0.0816 |
| RRIRRRPPRLPRPRPRPFDFPRP | -0.146 |
| RRIRRRPPRLPRPRPRPDDVPRP | 0.0443 |
| RRIRIRPPRLPRPRPRPHAIPRP | -0.21 |
| RRIRYRPPRLPRPRPRPKVGPRP | 0.0316 |
| RRIRSRPPRLPRPRPRPWWVPRP | -0.2 |
| RRIRGRPPRLPRPRPRPDIRPRP | 0.454 |
| RRIRMRPPRLPRPRPRPNSQPRP | -0.075 |
| RRIRVRPPRLPRPRPRPEHHPRP | -0.334 |
| RRIRVRPPRLPRPRPRPKWGPRP | 0.155 |

| Sequence | shrunken log2 fold change |
| --- | --- |
| RRIRSRPPRLPRPRPRPRSWPRP | 0.0511 |
| RRIRKRPPRLPRPRPRPGLSPRP | 0.0644 |
| RRIRERPPRLPRPRPRPQGKPRP | -0.345 |
| RRIRQRPPRLPRPRPRPSRNPRP | -0.0593 |
| RRIRARPPRLPRPRPRPCPPPRP | 0.156 |
| RRIRGRPPRLPRPRPRPGNKPRP | -0.216 |
| RRIRIRPPRLPRPRPRPLAQPRP | -0.116 |
| RRIRKRPPRLPRPRPRPYRSPRP | 0.0428 |
| RRIRHRPPRLPRPRPRPKCQPRP | -0.0621 |
| RRIRDRPPRLPRPRPRPFKHPRP | -0.264 |
| RRIRKRPPRLPRPRPRPADQPRP | -0.0199 |
| RRIRNRPPRLPRPRPRPSQSPRP | -0.169 |
| RRIRERPPRLPRPRPRPRAGPRP | 0.459 |
| RRIRARPPRLPRPRPRPNYCPRP | -0.223 |
| RRIRGRPPRLPRPRPRPSSNPRP | 0.369 |
| RRIRSRPPRLPRPRPRPHYHPRP | -0.696 |
| RRIRVRPPRLPRPRPRPHSEPRP | -0.392 |
| RRIRERPPRLPRPRPRPVISPRP | -0.145 |
| RRIRIRPPRLPRPRPRPSQWPRP | -1.15 |
| RRIRNRPPRLPRPRPRPPMGPRP | -0.0346 |
| RRIRFRPPRLPRPRPRPNFKPRP | -0.222 |
| RRIRKRPPRLPRPRPRPDTIPRP | 0.163 |
| RRIRKRPPRLPRPRPRPSHGPRP | -0.216 |
| RRIRTRPPRLPRPRPRPLYLPRP | -0.558 |
| RRIRIRPPRLPRPRPRPVYYPRP | -1.62 |
